PMC6522849

System: T1, BsrR (Enterococcus faecium NW2), ORF:b1c0129b
T1 sequence: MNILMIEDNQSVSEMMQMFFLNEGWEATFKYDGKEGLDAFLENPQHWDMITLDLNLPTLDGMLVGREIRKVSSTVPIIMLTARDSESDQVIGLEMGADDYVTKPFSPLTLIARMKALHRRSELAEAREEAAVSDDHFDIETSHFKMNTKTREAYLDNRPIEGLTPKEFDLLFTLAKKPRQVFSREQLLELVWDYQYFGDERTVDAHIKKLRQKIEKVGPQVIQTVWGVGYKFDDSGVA
Test: EMSA

AAATAAAACTCCTTTTTTATTGGAATAAGTTTATCTTAACAAAGAATGAACAAAAGACAAACCTTTCGTGAAGAATTCCTGAACATATTGGTTCAGTCAACAATTTAGAGTATACTATAAGAAGAGAATTTAGGAGGGAAAGA (double strand) [bsrX upstream intergenic region, 143 bp]
binding: binds
